This data set concerns MS2 coat protein. The experiment in a line: apparent KD of MS2 coat protein; higher = weaker reporter binding. As to conditions: Eterna round: R107. Put shortly: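 Designed RNA switches were transcribed on-chip from Illumina sequencing clusters and titrated with SNAP-549-labelled MS2 coat protein in twofold steps from 0.7 or 1.5 nM up to 3 µM. Each step lasted 0.8–1.5 h at first and 10–20 min by the end, in 100 mM Tris-HCl pH 7.5, 80 mM KCl and 4 mM MgCl2, without or with constant ligand. Apparent KD is the median, for each design, of fits to normalised cluster binding curves.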

Where [1] appears, read: input ligand: theophylline 20 uM.
Setting [2] is: input ligand: tryptophan 2.4 mM.
Setting [3] is: input ligand: theophylline 2 mM.

Results on 18 sequences are retold here after the supplement of paper PMC9170038.

For the sequence “UAACAUGAGGAUCACCCAUGUAUAGUCGAUACCAGCUCAAGGAAGAGCCCUUGGCAGCGACACUGCCAAGCAUGGGUCAUGGCAG [(Ms2)-(Theo)-(T)'-(M)'-(T)''_Design5]”, the “apparent KD of MS2 coat protein” value is 20.7 nM (input ligand: arginine 13.2 mM), 31.9 nM under setting [1] and 19.5 nM under setting [2].

Regarding “UAAUAAUCCAGGGUGUAGGUAAUAACAGAUACCAGCCAGAUAACUGGCCCUUGGCAGCUGAAAACCUGAGGAUCACCCAGGUAAA [TheoAS 23 #OpenEnded #MS2Late #AlternativeMS2]”, the “apparent KD of MS2 coat protein” value was 36.4 nM (input ligand: arginine 13.2 mM); 56.2 nM (input ligand: none); 122 nM under setting [1]; 67.7 nM under setting [3]; 62.6 nM under setting [2].

On to “UAAUGCAGGUCGGCCGCCACUACACACAUGAGGAUCACCCAUGUAGUUACUGGGUGAAGUGGCAGUAGGACCGGGACCUGCAUAC [Brourdmod04]”, for which the “apparent KD of MS2 coat protein” value came to 165 nM (input ligand: arginine 13.2 mM), 578 nM under setting [1] and 833 nM under setting [3].

Consider “UAGACGGCCGGAAGGAGCGGUACAUGAGGAUCACCCAUGUAUCCCUGGGCAUCCGUAGUGUGCCAGGUAGGUCGCCGGUUGCGGG [XArg-B21]”, for which the “apparent KD of MS2 coat protein” value was 15.3 nM (input ligand: arginine 13.2 mM); 15.5 nM (input ligand: none); 25.2 nM under setting [1]; 18.2 nM under setting [3]; 15.9 nM under setting [2].

As to “UAUAUAGAAGGAUGUCAUAUAGAUGCAGAAGGAGCGUAGGAAACUACAGGUAGGUCGCUGAGGUACAUGAGGAUCACCCAUGUAG [SSArg A #17 Slice of Pi]”, the “apparent KD of MS2 coat protein” value turned out to be 32.6 nM (input ligand: arginine 13.2 mM); 33.1 nM (input ligand: none); 54 nM under setting [1]; 45.5 nM under setting [3]; 26.7 nM under setting [2].

Take “UAUAUAGUGAUGGAUACCAGCAGAGAAAACGUUUAUCCUAACAUGAGGAUCACCCAUGUAUGCCCUUGGCAGCUGUUGUUAUAUA [8.L]”: the “apparent KD of MS2 coat protein” value (input ligand: arginine 13.2 mM) is 20.8 nM, the “apparent KD of MS2 coat protein” value under setting [1] is 30.1 nM and the “apparent KD of MS2 coat protein” value under setting [2] was found to be 21.4 nM.

Take “UAUAUAUACUCGGCCGCCACUGAGAGAGUCAUGUAAACAUGAGGAUCACCCAUGUAAUAUAUAUACAGGACCGGGAGUAUAUGAA [4.B]”: the “apparent KD of MS2 coat protein” value (input ligand: arginine 13.2 mM) was 11.8 nM, the “apparent KD of MS2 coat protein” value under setting [1] amounted to 17.7 nM and the “apparent KD of MS2 coat protein” value under setting [3] was found to be 15.5 nM.

For “UAUAUAUAGGGAAGGAGCGGGAACAUGAGGAUCACCCAUGUACAUGAGGAUCACCCAUGUACCCAGGUAGGUCGCCCAUAUAUAU [Exclusion - Arginine B]”, the “apparent KD of MS2 coat protein” value is, setting by setting: (input ligand: arginine 13.2 mM) 90.7 nM; (input ligand: none) 250 nM; under setting [1], 227 nM; under setting [3], 276 nM; under setting [2], 241 nM.

Consider “UAUAUAUAUAGGGAUACCAGCAGAGAAAACGUUUAUCCUAACAUGAGGAUCACCCAUGUAUGCCCUUGGCAGCUUUAUAUAUAUA [8.F]”, for which the “apparent KD of MS2 coat protein” value runs as follows: (input ligand: arginine 13.2 mM) 23.6 nM; under setting [1], 27.6 nM; under setting [2], 24 nM.

Consider “UAUAUAUAUAUUGAUACCAGCAGAGAAAACGUAUAUCCUAACAUGAGGAUCACCCAUGUAUGCCCUUGGCAGCGAUAUAUAUAUA [8.B]”, for which the “apparent KD of MS2 coat protein” value runs as follows: (input ligand: arginine 13.2 mM) 21.2 nM; under setting [1], 31 nM; under setting [2], 24.9 nM.

Turning to “UAUCCACAUGAGGAUCACCCAUGUAGGGAAGGAGCGGUGAAUGCACCAGGUAGGUCGCCUUGCUGAGGACAGCCGGUGGAUUCGU [Exclusion - Arginine A (Freestyle 26)]”, the “apparent KD of MS2 coat protein” value (input ligand: arginine 13.2 mM) was 16.7 nM; the “apparent KD of MS2 coat protein” value (input ligand: none) amounted to 12.2 nM; the “apparent KD of MS2 coat protein” value under setting [1] amounted to 19 nM; the “apparent KD of MS2 coat protein” value under setting [3] was 23 nM; the “apparent KD of MS2 coat protein” value under setting [2] came to 16 nM.

In the case of “UAUCCACAUGAGGAUCACCCAUGUUAGGAAGGAGCGGUGAGUGCACCAGGUAGGUCGCCUAGCUGAGGACUGUCGGUGGAUUCGU [Exclusion - Arginine A (Freestyle 20)]”, the “apparent KD of MS2 coat protein” value is, setting by setting: (input ligand: arginine 13.2 mM) 39.7 nM; (input ligand: none) 88 nM; under setting [1], 67.3 nM; under setting [3], 57.1 nM; under setting [2], 47.7 nM.

As to “UAUGCACAUGAGGAUCACCCAUGUAUGGAAGGAGCGGUGAAUAAACCAGGUAGGUCGCCAUGGUGAGGAUCAUCUAUGUAAUCGU [Exclusion - Arginine A (Freestyle 6)]”, the “apparent KD of MS2 coat protein” value turned out to be 62.3 nM (input ligand: arginine 13.2 mM); 93.2 nM (input ligand: none); 125 nM under setting [1]; 103 nM under setting [3]; 87.8 nM under setting [2].

On to “UAUUUUGGGCGCGAGCCCGGGAUAAUUGAUACCAGUGAAGAAGAGCGCCCUUGGCAGCGAAUCCUAACAUGAGGAUCACCCAUGU [5.Q]”, for which the “apparent KD of MS2 coat protein” value was 52.5 nM (input ligand: arginine 13.2 mM), 65.4 nM under setting [1] and 45.1 nM under setting [2].

As to “UCAUGAGGAUCACCCAUGUGGCGUCUUGAUACCAGACGAGAAGUAGUCCCUUGGCAGCAAAUACAUGAGGAUCACCCAUGUAGGA [cccmullin2]”, the “apparent KD of MS2 coat protein” value by setting is: (input ligand: arginine 13.2 mM) 24.5 nM; under setting [1], 38.2 nM; under setting [2], 43 nM.

As to “UCCUCCUCCGCAAGGAGGAGGAGUUGCGAUACCAGCACGGUAACGUGCCCUUGGCAGCGCACAUGAGGAUCACCCAUGUGGUGUU [#1 Exclusion - Theophylline A Attempt #12 (HarryS)]”, the “apparent KD of MS2 coat protein” value is, setting by setting: (input ligand: arginine 13.2 mM) 52.7 nM; (input ligand: none) 228 nM; under setting [1], 455 nM; under setting [3], 379 nM; under setting [2], 231 nM.

On to “UCGCCCGGGUCGGCCGCCACUGAGGUAAUAUGACAUGAGGAUCACCCAUGUUGUCAUGUGGAACAUAGGACCGGGACCCGGGCGA [Exclusion - Tryptophan B Attempt #1 (HarryS)]”, for which the “apparent KD of MS2 coat protein” value is 9.15 nM (input ligand: arginine 13.2 mM); 8.61 nM (input ligand: none); 15.1 nM under setting [1]; 15.2 nM under setting [3]; 13.4 nM under setting [2].

With “UCGCUCGCCGAAAGGCGAGCGAGUUGCGAUACCAGCCCGGAAACGGGCCCUUGGCAGCGCACAUGAGGAUCACCCAUGUCAUGUU [#1 Exclusion - Theophylline A Attempt #3 (HarryS)]”, the “apparent KD of MS2 coat protein” value by setting is: (input ligand: arginine 13.2 mM) 13.4 nM; (input ligand: none) 19.4 nM; under setting [1], 25.3 nM; under setting [3], 58.7 nM; under setting [2], 31.3 nM.
